Here are results for 6 molecules from patent US20250152742A1, “COMPOSITIONS AND METHODS FOR NEUROLOGICAL DISEASES” (Trames Bio, Inc., priority 2022, published 2025).

This assay deals with rat DRG neurons. The assay can be described thus: Rheobase shift / evoked action potentials, rat DRG neurons (current clamp). It is filed as cell-based. Conditions: for Rheobase Shift; Rat DRG Neurons, Baseline: no ligand, neurons expressing the receptor; for Rheobase Shift; Rat DRG Neurons, +TC-5619 @ EC90: ligand TC-5619 at EC90. Here is the method:
Using whole cell manual patch clamp electrophysiology in HEK293 cells, rat DRG neurons and rat hippocampal neurons, the EC50 of the various engineered receptors disclosed herein to Ach and non-native ligands was measured using the Hill equation with peak current measurements from escalating doses of ligand. The rheobase shift was also measured in rat DRG neurons, which reflects the efficacy of the receptors. To calculate the rheobase, first, the amount of current that can produce an action potential was determined. Then the ligand was added, followed by a step wise increase in the current injected up to 700 pA.
DRG rheobase experiments were performed in current clamp mode using a potassium-based internal solution containing: 100 mM potassium D-gluconate, 28 mM potassium chloride, 1 mM magnesium chloride hexahydrate, 5 mM magnesium ATP, 10 mM HEPES, and 0.5 mM EGTA (pH=7.2 with potassium hydroxide, osmolarity=290-295 mOsm, calculated liquid junction potential=−13.5 mV). To measure DRG input resistance and rheobase, 500 ms current steps (−200 pA to 700 pA) were applied the membrane in the presence and absence of a compound. No holding current was applied to the membrane for cells included in the final datasets. Data were acquired at 10 kHz, with Bessel filter at 2 kHz and series resistance compensation at 100%. Rheobase was defined as the smallest depolarizing current injection required to cause an action potential to fire in the cell. In a subset of cells, the rheobase was ambiguous, since the action potential appeared to be graded in amplitude. In these cases, a […] of the trace clarified the rheobase. Input resistance was measured from the negative current injections, calculated as the difference in membrane potential at steady state divided by the current injection amplitude and then averaged across the four negative current steps for each recording. Resting membrane potential was measured from the first 100 ms of each sweep, averaged for each recording, and corrected for liquid junction potential. One-way ANOVA with multiple comparisons was used to test for significance of difference in rheobase and input resistance between baseline, drug, and wash conditions.
DRG neurons: DRG rheobase experiments were performed in current clamp mode using a potassium-based internal solution containing (in mM): 100 potassium D-gluconate (G4500), 28 potassium chloride (P9333), 1 magnesium chloride hexahydrate (M2670), 5 magnesium ATP (A9187), 10 HEPES (54457), and 0.5 EGTA (3777) (pH=7.2 with potassium hydroxide, osmolarity=290-295 mOsm, calculated liquid junction potential=−13.5 mV). To measure DRG input resistance and rheobase, 500 ms current steps (−200 pA to 700 pA) were applied the membrane (−400 pA to 700 pA in an early version of the protocol) in the presence and absence of a compound. No holding current was applied to the membrane for cells included in the final datasets. Data were acquired at 10 kHz, with Bessel filter at 2 kHz and series resistance compensation at 100%. Rheobase was defined as the smallest depolarizing current injection required to cause an action potential to fire in the cell. In a subset of cells, the rheobase was ambiguous, since the action potential appeared to be graded in amplitude. In these cases, a […] of the trace clarified the rheobase. Input resistance was measured from the negative current injections, calculated as the difference in membrane potential at steady state divided by the current injection amplitude and then averaged across the four negative current steps for each recording. Resting membrane potential was measured from the first 100 ms of each sweep, averaged for each recording, and corrected for liquid junction potential. One-way ANOVA with multiple comparisons was used to test for significance of difference in rheobase and input resistance between baseline, drug, and wash conditions.

B1: CODA1025: engineered receptor: R101F, L131G in SEQ ID NO: 33 (protein)
chain: MRCSPGGVWLALAASLLHVSLQGEFQRKLYKELVKNYNPLERPVANDSQPLTVYFSLSLLQIMDVDEKNQVLTTNIWLQMSWTDHYLQWNVSEYPGVKTVFFPDGQIWKPDILLYNSADERFDATFHTNVGVNSSGHCQYLPPGIFKSSCPMDLKNFPMDVQTCKLKFGSWSYGGWSLDLQMQEADISGYIPNGEWDLVGIPGKRSERFYECCKEPYPDVTFTVTMRRRMGYYLIQMYIPSLLIVILSWISFWINMDAAPARVGLGITTVLTMTTQSSGSRASLPKVSYVKAIDIWMAVCLLFVFSALLEYAAVNFVSRQHKELLRFRRKRRHHKSPMLNLFQEDEAGEGRFNFSAYGMGPACLQAKDGISVKGANNSNTTNPPPAPSKSPEEMRKLFIQRAKKIDKISRIGFPMAFLIFNMFYWIIYKIVRREDVHNQ
modifications: synthetic sequence of chimeric LGIC
Take B1: the “Rheobase Shift; Rat DRG Neurons, Baseline” value (shortened to “Rheobase Shift … Baseline”) was 140 ± 19 pA and the “Rheobase Shift; Rat DRG Neurons, +TC-5619 @ EC90” value (“Rheobase Shift … +TC-5619 @ EC90” below) came to 560 ± 72 pA.

B2: CODA1048: engineered receptor: R101F, Y210F in SEQ ID NO: 33 (protein)
chain: MRCSPGGVWLALAASLLHVSLQGEFQRKLYKELVKNYNPLERPVANDSQPLTVYFSLSLLQIMDVDEKNQVLTTNIWLQMSWTDHYLQWNVSEYPGVKTVFFPDGQIWKPDILLYNSADERFDATFHTNVLVNSSGHCQYLPPGIFKSSCPMDLKNFPMDVQTCKLKFGSWSYGGWSLDLQMQEADISGYIPNGEWDLVGIPGKRSERFFECCKEPYPDVTFTVTMRRRMGYYLIQMYIPSLLIVILSWISFWINMDAAPARVGLGITTVLTMTTQSSGSRASLPKVSYVKAIDIWMAVCLLFVFSALLEYAAVNFVSRQHKELLRFRRKRRHHKSPMLNLFQEDEAGEGRFNFSAYGMGPACLQAKDGISVKGANNSNTTNPPPAPSKSPEEMRKLFIQRAKKIDKISRIGFPMAFLIFNMFYWIIYKIVRREDVHNQ
modifications: synthetic sequence of chimeric LGIC
For B2, the “Rheobase Shift … Baseline” value is recorded as 120 ± 19 pA and the “Rheobase Shift … +TC-5619 @ EC90” value worked out at 590 ± 46 pA.

B3: CODA1054: engineered receptor: R101M, L131F in SEQ ID NO: 33 (protein)
chain: MRCSPGGVWLALAASLLHVSLQGEFQRKLYKELVKNYNPLERPVANDSQPLTVYFSLSLLQIMDVDEKNQVLTTNIWLQMSWTDHYLQWNVSEYPGVKTVMFPDGQIWKPDILLYNSADERFDATFHTNVFVNSSGHCQYLPPGIFKSSCPMDLKNFPMDVQTCKLKFGSWSYGGWSLDLQMQEADISGYIPNGEWDLVGIPGKRSERFYECCKEPYPDVTFTVTMRRRMGYYLIQMYIPSLLIVILSWISFWINMDAAPARVGLGITTVLTMTTQSSGSRASLPKVSYVKAIDIWMAVCLLFVFSALLEYAAVNFVSRQHKELLRFRRKRRHHKSPMLNLFQEDEAGEGRFNFSAYGMGPACLQAKDGISVKGANNSNTTNPPPAPSKSPEEMRKLFIQRAKKIDKISRIGFPMAFLIFNMFYWIIYKIVRREDVHNQ
modifications: synthetic sequence of chimeric LGIC
On to B3, for which the “Rheobase Shift … Baseline” value worked out at 105 ± 13 pA and the “Rheobase Shift … +TC-5619 @ EC90” value is 673 ± 27 pA.

B4: CODA1027: engineered receptor: R101F, L131D in SEQ ID NO: 33 (protein)
chain: MRCSPGGVWLALAASLLHVSLQGEFQRKLYKELVKNYNPLERPVANDSQPLTVYFSLSLLQIMDVDEKNQVLTTNIWLQMSWTDHYLQWNVSEYPGVKTVFFPDGQIWKPDILLYNSADERFDATFHTNVDVNSSGHCQYLPPGIFKSSCPMDLKNFPMDVQTCKLKFGSWSYGGWSLDLQMQEADISGYIPNGEWDLVGIPGKRSERFYECCKEPYPDVTFTVTMRRRMGYYLIQMYIPSLLIVILSWISFWINMDAAPARVGLGITTVLTMTTQSSGSRASLPKVSYVKAIDIWMAVCLLFVFSALLEYAAVNFVSRQHKELLRFRRKRRHHKSPMLNLFQEDEAGEGRFNFSAYGMGPACLQAKDGISVKGANNSNTTNPPPAPSKSPEEMRKLFIQRAKKIDKISRIGFPMAFLIFNMFYWIIYKIVRREDVHNQ
modifications: synthetic sequence of chimeric LGIC
With B4, the “Rheobase Shift … Baseline” value came to 100 ± 23 pA and the “Rheobase Shift … +TC-5619 @ EC90” value came to 638 ± 63 pA.

B5: CODA1039: engineered receptor: Y115E, Y210W in SEQ ID NO: 33 (protein)
chain: MRCSPGGVWLALAASLLHVSLQGEFQRKLYKELVKNYNPLERPVANDSQPLTVYFSLSLLQIMDVDEKNQVLTTNIWLQMSWTDHYLQWNVSEYPGVKTVRFPDGQIWKPDILLENSADERFDATFHTNVLVNSSGHCQYLPPGIFKSSCPMDLKNFPMDVQTCKLKFGSWSYGGWSLDLQMQEADISGYIPNGEWDLVGIPGKRSERFWECCKEPYPDVTFTVTMRRRMGYYLIQMYIPSLLIVILSWISFWINMDAAPARVGLGITTVLTMTTQSSGSRASLPKVSYVKAIDIWMAVCLLFVFSALLEYAAVNFVSRQHKELLRFRRKRRHHKSPMLNLFQEDEAGEGRFNFSAYGMGPACLQAKDGISVKGANNSNTTNPPPAPSKSPEEMRKLFIQRAKKIDKISRIGFPMAFLIFNMFYWIIYKIVRREDVHNQ
modifications: synthetic sequence of chimeric LGIC
With B5, the “Rheobase Shift … Baseline” value is recorded as 88 ± 9 pA and the “Rheobase Shift … +TC-5619 @ EC90” value is recorded as 453 ± 58 pA.

B6: CODA1045: engineered receptor: R101W, Y210V in SEQ ID NO: 33 (protein)
chain: MRCSPGGVWLALAASLLHVSLQGEFQRKLYKELVKNYNPLERPVANDSQPLTVYFSLSLLQIMDVDEKNQVLTTNIWLQMSWTDHYLQWNVSEYPGVKTVWFPDGQIWKPDILLYNSADERFDATFHTNVLVNSSGHCQYLPPGIFKSSCPMDLKNFPMDVQTCKLKFGSWSYGGWSLDLQMQEADISGYIPNGEWDLVGIPGKRSERFVECCKEPYPDVTFTVTMRRRMGYYLIQMYIPSLLIVILSWISFWINMDAAPARVGLGITTVLTMTTQSSGSRASLPKVSYVKAIDIWMAVCLLFVFSALLEYAAVNFVSRQHKELLRFRRKRRHHKSPMLNLFQEDEAGEGRFNFSAYGMGPACLQAKDGISVKGANNSNTTNPPPAPSKSPEEMRKLFIQRAKKIDKISRIGFPMAFLIFNMFYWIIYKIVRREDVHNQ
modifications: synthetic sequence of chimeric LGIC
Take B6: the “Rheobase Shift … Baseline” value came out at 141 ± 22 pA and the “Rheobase Shift … +TC-5619 @ EC90” value is 700 ± 0 pA.
